The target of one experiment is sFlt-1 (Homo sapiens) (UniProt P17948). Conditions: cited from earlier work.
Experiment [1] deals with human VEGF (human) (UniProt P15692).
Experiment [2] shares this target. The source holds these as a separate data set.
Another experiment has as its target mouse VEGF (mouse) (UniProt Q00731).

Chain of UniProt P17948 (P17948 27-1338): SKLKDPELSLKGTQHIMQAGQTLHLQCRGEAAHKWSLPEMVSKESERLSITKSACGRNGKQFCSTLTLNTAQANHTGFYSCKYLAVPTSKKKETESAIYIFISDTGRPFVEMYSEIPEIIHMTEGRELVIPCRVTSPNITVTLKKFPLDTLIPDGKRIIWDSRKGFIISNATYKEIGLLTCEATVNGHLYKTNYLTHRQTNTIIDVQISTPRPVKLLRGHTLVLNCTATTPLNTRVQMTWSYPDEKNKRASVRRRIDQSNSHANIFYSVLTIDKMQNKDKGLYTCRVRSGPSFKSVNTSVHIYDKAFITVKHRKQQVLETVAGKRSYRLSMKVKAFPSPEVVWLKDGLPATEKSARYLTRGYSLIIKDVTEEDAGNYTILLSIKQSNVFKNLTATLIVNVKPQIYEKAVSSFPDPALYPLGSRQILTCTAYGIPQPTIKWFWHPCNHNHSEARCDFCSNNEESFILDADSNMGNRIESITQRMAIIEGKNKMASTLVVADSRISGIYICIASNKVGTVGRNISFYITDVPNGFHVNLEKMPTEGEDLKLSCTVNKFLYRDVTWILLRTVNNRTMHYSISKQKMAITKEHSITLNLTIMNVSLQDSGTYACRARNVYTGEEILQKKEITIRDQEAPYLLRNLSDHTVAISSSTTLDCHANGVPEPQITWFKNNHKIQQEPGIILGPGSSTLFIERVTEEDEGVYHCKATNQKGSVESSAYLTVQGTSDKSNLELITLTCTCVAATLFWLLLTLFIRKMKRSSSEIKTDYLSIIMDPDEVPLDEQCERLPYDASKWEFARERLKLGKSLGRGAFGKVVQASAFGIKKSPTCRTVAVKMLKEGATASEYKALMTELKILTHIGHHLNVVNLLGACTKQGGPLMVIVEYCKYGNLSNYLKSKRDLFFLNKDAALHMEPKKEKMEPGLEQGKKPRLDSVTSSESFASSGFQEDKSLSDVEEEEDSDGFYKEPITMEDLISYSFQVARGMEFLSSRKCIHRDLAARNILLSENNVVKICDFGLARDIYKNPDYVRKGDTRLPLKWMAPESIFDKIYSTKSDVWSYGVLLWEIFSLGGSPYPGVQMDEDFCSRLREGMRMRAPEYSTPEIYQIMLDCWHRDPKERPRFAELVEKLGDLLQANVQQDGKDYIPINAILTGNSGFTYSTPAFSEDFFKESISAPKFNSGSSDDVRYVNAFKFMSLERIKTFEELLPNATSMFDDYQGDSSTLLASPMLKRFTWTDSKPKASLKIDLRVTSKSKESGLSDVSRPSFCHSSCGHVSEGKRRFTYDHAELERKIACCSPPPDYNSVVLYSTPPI

Usually Kd stands for a measure of binding affinity in units of concentration. Turning to VEGF (from UniProt P15692), in the experiment with sFlt-1 (Homo sapiens), the Kd was 0.03 nM.

For the molecule “human recombinant VEGFR-1/Flt-1 Fc chimera (from UniProt P17948-2 27-687) (Fc fusion)”, the VEGFR-2 phosphorylation in HUVECs with human VEGF, human sFlt-1 and a 4-fold molar excess of the antibody 21B3 (no letters) with human VEGF (human) [1] is 85 % of maximum. For the same molecule, the VEGFR-2 phosphorylation in HUVECs with VEGF, human sFlt-1 and 2 times to 4 times molar excess of the antibody 27H6 with human VEGF (human) [2] is 89 % of maximum.

B1: mouse recombinant VEGFR-1/Flt-1 Fc chimera (Fc fusion)
chain: YGSGSKLKVPELSLKGTQHVMQAGQTLFLKCRGEAAHSWSLPTTVSQEDKRLSITPPSACGRDNRQFCSTLTLDTAQANHTGLYTCRYLPTSTSKKKKAESSIYIFVSDAGSPFIEMHTDIPKLVHMTEGRQLIIPCRVTSPNVTVTLKKFPFDTLTPDGQRITWDSRRGFIIANATYKEIGLLNCEATVNGHLYQTNYLTHRQTNTILDVQIRPPSPVRLLHGQTLVLNCTATTELNTRVQMSWNYPGKATKRASIRQRIDRSHSHNNVFHSVLKINNVESRDKGLYTCRVKSGSSFQSFNTSVHVYEKGFISVKHRKQPVQETTAGRRSYRLSMKVKAFPSPEIVWLKDGSPATLKSARYLVHGYSLIIKDVTTEDAGDYTILLGIKQSRLFKNLTATLIVNVKPQIYEKSVSSLPSPPLYPLGSRQVLTCTVYGIPRPTITWLWHPCHHNHSKERYDFCTENEESFILDPSSNLGNRIESISQRMTVIEGTNKTVSTLVVADSQTPGIYSCRAFNKIGTVERNIKFYVTDVPNGFHVSLEKMPAEGEDLKLSCVVNKFLYRDITWILLRTVNNRTMHHSISKQKMATTQDYSITLNLVIKNVSLEDSGTYACRARNIYTGEDILRKTEVLVRDSEAPHLLQNLSDYEVSISGSTTLDCQARGVPAPQITWFKNNHKIQQEPGIILGPGNSTLFIERVTEEDEGVYRCRATNQKGAVESAAYLTVQGTSDKSNLE
With B1, in the experiment with mouse VEGF (mouse), the VEGFR-2 phosphorylation in HUVECs with mouse VEGF, mouse sFlt-1 and a 10-fold molar excess of the antibody 21B3 (no letters) was 85 % of maximum.
